# Source: IntAct's records for PubMed 22770221
# B1: 14-3-3 protein epsilon (Rattus norvegicus (Rat)), P62260 (parent)
# chain: MDDREDLVYQAKLAEQAERYDEMVESMKKVAGMDVELTVEERNLLSVAYKNVIGARRASWRIISSIEQKEENKGGEDKLKMIREYRQMVETELKLICCDILDVLDKHLIPAANTGESKVFYYKMKGDYHRYLAEFATGNDRKEAAENSLVAYKAASDIAMTELPPTHPIRLGLALNFSVFYYEILNSPDRACRLAKAAFDDAIAELDTLSEESYKDSTLIMQLLRDNLTLWTSDMQGDGEEQNKEALQDVEDENQ
# partner: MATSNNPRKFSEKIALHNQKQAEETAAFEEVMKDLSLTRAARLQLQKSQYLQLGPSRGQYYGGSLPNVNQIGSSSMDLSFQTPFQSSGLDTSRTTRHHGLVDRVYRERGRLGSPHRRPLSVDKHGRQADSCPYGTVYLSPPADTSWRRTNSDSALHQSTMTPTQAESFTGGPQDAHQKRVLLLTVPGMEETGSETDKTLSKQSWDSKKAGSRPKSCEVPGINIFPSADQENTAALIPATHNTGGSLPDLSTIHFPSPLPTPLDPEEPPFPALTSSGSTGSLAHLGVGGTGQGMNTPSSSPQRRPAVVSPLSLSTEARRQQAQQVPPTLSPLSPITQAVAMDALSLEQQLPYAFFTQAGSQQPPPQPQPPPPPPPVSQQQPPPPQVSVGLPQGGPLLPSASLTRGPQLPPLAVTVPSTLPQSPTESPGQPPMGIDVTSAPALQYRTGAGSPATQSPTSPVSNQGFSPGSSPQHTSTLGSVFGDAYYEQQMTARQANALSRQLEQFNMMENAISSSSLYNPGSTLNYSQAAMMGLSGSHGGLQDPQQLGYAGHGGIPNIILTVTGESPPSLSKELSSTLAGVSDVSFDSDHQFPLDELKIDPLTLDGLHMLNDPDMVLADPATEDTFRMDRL
# Variants of: B1
# Conditions: with crtc1_rat Crtc1, Q157S1
row,effect of a mutation on the interaction,Variant
1,decreasing interaction strength,MDDREDLVYQAKLAEQAERYDEMVESMKKVAGMDVELTVEERNLLSVAYENVIGARRASWRIISSIEQKEENKGGEDKLKMIREYRQMVETELKLICCDILDVLDKHLIPAANTGESKVFYYKMKGDYHRYLAEFATGNDRKEAAENSLVAYKAASDIAMTELPPTHPIRLGLALNFSVFYYEILNSPDRACRLAKAAFDDAIAELDTLSEESYKDSTLIMQLLRDNLTLWTSDMQGDGEEQNKEALQDVEDENQ [K50E]
